Experimental data reported in publication PMC9172573, “Covalent labeling of a chromatin reader domain using proximity-reactive cyclic peptides†” (Chemical Science, 2022).
Square brackets hold non-standard residues; d marks the D form. Ends that are not written are not given here. Peptide text beside a SMILES is read from it. Lys(Me3) = C[N+](C)(C)CCCC[C@H](N)C(=O)O; fluorescent label = not defined here; Arg(Me) = CNC(=N)NCCC[C@H](N)C(=O)O; Aib = CC(C)(N)C(=O)O; Me3 = trimethyl

Key:
[1] = target: His6-MBP-PHD3 (PHD3 domain of histone demethylase KDM5A) (UniProt P29375); assay: fluorescence polarisation; competition: recombinant His6-MBP-PHD3 incubated with the 10mer H3K4me3 tracer (C-terminal fluorescent label), then varying concentrations of the competing peptide; Ki
[2] = target: recombinant His6-MBP-PHD3 (PHD3 domain of KDM5A) (Homo sapiens, UniProt P29375)
[3] = target: His6-MBP-PHD3 (PHD3 domain of histone demethylase KDM5A) (UniProt P29375); assay: FP
trypsin = trypsin stability assay; type: in vitro ADME; conditions: peptide and trypsin 1:1 w/w, 1x PBS, RT, HPLC
Experimental: Trypsin stability assay: Peptide and trypsin (1:1 w/w) were mixed in 1x PBS buffer and the resulting mixture was incubated at RT. Proteolysis reactions at a given time point was quenched by adding HCl. The proteolysis process was monitored by subjecting the quenched mixture onto r everse-phase HPLC column monitoring at 2 14 nm [H2O (A):MeCN (B); 5% to 100% solvent B over 23 min].
Fig. S2a: Chromatograms of WT H3K4me3 hexapeptide ( 1) before and after incubation with trypsin ( t = < 5 min).
(1 picture or pasted object on this page, not shown here)

[4] = oxyguanidino / guanidino side-chain group; cited from earlier work
[5] = target: T1, His6-MBP-PHD3 (PHD3 domain of histone demethylase KDM5A) (UniProt P29375 1609-1659); assay: FP
T1 chain: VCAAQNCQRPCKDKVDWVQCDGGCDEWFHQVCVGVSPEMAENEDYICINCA

[6] = target: T1, His6-MBP-PHD3 (PHD3 domain of histone …); assay: FP
[7] = target: T2, His6-MBP-PHD3 (PHD3 domain of histone demethylase KDM5A) (UniProt P29375 1609-1659); assay: fluorescence polarisation; competition: recombinant His6-MBP-PHD3 incubated with the 10mer H3K4me3 tracer (C-terminal fluorescent label), then varying concentrations of the competing peptide; Ki; conditions: both partners purified
T2 construct: KDM5A, third (C-terminal) PHD finger, PHD3; holds K1620, K1622, W1625, W1635; also called recombinant His6-MBP-PHD3 protein; KDM5A-PHD3; source: recombinant; not shown: His6, N-terminal, kept; MBP, N-terminal, kept
T2 sequence: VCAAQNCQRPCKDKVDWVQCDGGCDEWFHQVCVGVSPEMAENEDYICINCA

PHD3 K1620A = target: T3, PHD3 K1620A (UniProt P29375 1609-1659, K1620A); assay: FP
T3 sequence: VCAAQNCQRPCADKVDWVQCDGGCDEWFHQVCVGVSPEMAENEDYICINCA

[8] = target: T1, His6-MBP-PHD3 (PHD3 domain of histone …); assay: FP
PHD3 K1622A = target: T4, PHD3 K1622A (UniProt P29375 1609-1659, K1622A); assay: FP
T4 sequence: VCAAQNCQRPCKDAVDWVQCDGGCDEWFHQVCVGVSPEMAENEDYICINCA

[9] = target: T5, PHD3 double mutant K1620A/K1622A (UniProt P29375 1609-1659, K1620A | K1622A); assay: FP
T5 sequence: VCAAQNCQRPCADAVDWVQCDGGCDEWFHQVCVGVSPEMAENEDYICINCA

Molecule: H3K4me3 6mer peptide 9 (R2 replaced with homo-arginine) (from UniProt P68431 2-7)
- Ki [1]: 740 nM

Molecule: C[C@@H](O)[C@H](NC(=O)[C@H](CCC(N)=O)NC(=O)[C@H](CCCC[N+](C)(C)C)NC(=O)[C@@H](NC(=O)[C@H](CCCNC(=N)N)NC(=O)[C@@H]1CCCN1)[C@@H](C)O)C(N)=O [compound 6] (H-PRT[Lys(Me3)]QT-NH2)
- Ki [2]: 2700 ± 640 nM

Molecule: H3K4me3 6mer peptide 4 (A1 sidechain modified) (from UniProt P68431 2-7)
- Ki [3]: 12000 nM

Molecule: H3 6mer peptide 14 (K4me3 replaced with homo-arginine) (from UniProt P68431 2-7)
- Ki [1]: 690 nM

Molecule: H3K4me3 6mer peptide 8 (R2 replaced with canavanine) (from UniProt P68431 2-7)
- Ki [1]: 2300 nM

Molecule: C[C@H](N)C(=O)N[C@@H](CCCNC(=N)N)C(=O)N[C@H](C(=O)N[C@@H](CCCC[N+](C)(C)C)C(=O)N[C@@H](CCC(N)=O)C(=O)N[C@H](C(N)=O)[C@@H](C)O)[C@@H](C)O [compound 1, ARTK(me3)QT] (H-ART[Lys(Me3)]QT-NH2)
- tryptic stability (trypsin): highly susceptible to tryptic digestion

Molecule: N=C(N)NCCC[C@H](N)C(=O)O [arginine]
- pKa [4]: ~12.48

Molecule: N=C(N)NOCC[C@H](N)C(=O)O [canavanine]
- pKa [4]: 7.01

Molecule: C[C@@H](O)[C@H](NC(=O)[C@H](CCC(N)=O)NC(=O)[C@H](CCCC[N+](C)(C)C)NC(=O)[C@@H](NC(=O)[C@H](CCCNC(=N)N)NC(=O)[C@@H](N)CO)[C@@H](C)O)C(N)=O [compound 5] (H-SRT[Lys(Me3)]QT-NH2)
- Ki [2]: 1700 ± 300 nM

Molecule: C[C@H](N)C(=O)N[C@@H](CCCNC(=N)N)C(=O)N[C@H](C(=O)N[C@@H](CCCC[N+](C)(C)C)C(=O)N[C@@H](CCC(N)=O)C(=O)N[C@@H](C)C(=O)N[C@@H](C)C(=O)N[C@@H](CCCNC(=N)N)C(=O)N[C@@H](CCCCN)C(=O)N[C@@H](CO)C(N)=O)[C@@H](C)O [T6A]
- Ki [2]: 150 ± 47 nM

Molecule: NC(N)=NCCCC[C@H](N)C(=O)O [homo-arginine]
- pKa [4]: ~12.48

Molecule: ART[Lys(Me3)]YT [H3K4me3 6mer peptide 15 (Q5 replaced with tyrosine)]
- Ki [5]: 440 nM

Molecule: ART[Lys(Me3)]QTARK (not fully specified) [9mer]
- Ki [6]: 15 nM

Molecule: ART[Lys(Me3)] (not fully specified) [4mer]
- Ki [6]: 2700 nM

Molecule: ART[Lys(Me3)]QTA (not fully specified) [7mer]
- Ki [6]: 43 nM

Molecule: ART[Lys(Me3)]QTARAS [K9A]
- Ki [6]: 28 nM

Molecule: A[Arg(Me)]T[Lys(Me3)]QT [H3K4me3 6mer peptide 10 (R2 guanidino group monomethylated)]
- Ki [5]: 220 nM

Molecule: ARTAQTARKS [H3 10mer peptide, K4 replaced with Ala]
- Ki [6]: 30000 nM

Molecule: AAT[Lys(Me3)]QTARKS [H3K4me3 10mer peptide, R2 replaced with Ala]
- Ki [6]: 560 nM

Molecule: ARTK(Me3)QT [hexapeptide ARTK(me3)QT (1)]
- Ki [7]: 130 nM

B1: sulfone cyclopeptide C-20c (peptide, UniProt P68431 2-7, looked up)
peptide: ARTKQC
modifications: not fully specified; Cys at 6; ε-amino group of dimethyllysine 4 stapled to the Cys6 sulfur with 1,2-bis(bromomethyl)benzene, thioether oxidised to the sulfone
notes: Full-length, cleaved form of intermediate C-20; also called series C; source: synthetic peptide, Fmoc-SPPS on Rink amide resin
- fold decrease in binding affinity (against the thioether C-18c, as read) [7]: 5 fold

Molecule: [Aib]RT[Lys(Me3)]QT [2-aminoisobutyric acid-containing peptide 7]
- Ki [5]: 310 nM

Molecule: ART[Lys(Me3)]QTARKA [S10A]
- Ki [6]: 12 nM

Molecule: ART[Lys(Me3)]ATARKS [H3K4me3 10mer peptide Q5A]
- Ki [6]: 59 nM

Molecule: ART[Lys(Me3)]QTARKS-{fluorescent label} (reading uncertain) [10mer H3K4me3 tracer containing a C-terminal fluorescent label]
- Kd (PHD3 K1620A): 58 nM
- Kd [8]: 83 nM
- Kd (PHD3 K1622A): 160 nM
- Kd [9]: 71 nM

Molecule: ART[Lys(Me3)]QTAAKS [R8A]
- Ki [6]: 69 nM

Molecule: ART[Lys(Me3)]QTAR (not fully specified) [8mer]
- Ki [6]: 54 nM

Molecule: ARA[Lys(Me3)]QTARKS [H3K4me3 10mer peptide, T3 replaced with Ala]
- Ki [6]: 650 nM

Molecule: ARV[Lys(Me3)]QT [H3K4me3 6mer peptide 13 (T3V)]
- Ki [5]: 240 nM

Molecule: Me-ART[Lys(Me3)]QT [N-terminally methylated H3K4me3 6mer peptide (3)]
- Ki [5]: 150 nM

Molecule: Ac-ART[Lys(Me3)]QT [N-terminally acetylated H3K4me3 6mer peptide (2)]
- Ki [5]: 76000 nM
